Assay [1] deals with T1, human Fibrin (human fibrinogen clotted on the plate with thrombin and CaCl2) (human, UniProt P02671 36-629; P02675 45-491; P02679 27-437).
T1 construct: Made in the ELISA wells from the human fibrinogen by thrombin and CaCl2, 1 hour at 37 C, then dried
T1 sequence (looked up) 1: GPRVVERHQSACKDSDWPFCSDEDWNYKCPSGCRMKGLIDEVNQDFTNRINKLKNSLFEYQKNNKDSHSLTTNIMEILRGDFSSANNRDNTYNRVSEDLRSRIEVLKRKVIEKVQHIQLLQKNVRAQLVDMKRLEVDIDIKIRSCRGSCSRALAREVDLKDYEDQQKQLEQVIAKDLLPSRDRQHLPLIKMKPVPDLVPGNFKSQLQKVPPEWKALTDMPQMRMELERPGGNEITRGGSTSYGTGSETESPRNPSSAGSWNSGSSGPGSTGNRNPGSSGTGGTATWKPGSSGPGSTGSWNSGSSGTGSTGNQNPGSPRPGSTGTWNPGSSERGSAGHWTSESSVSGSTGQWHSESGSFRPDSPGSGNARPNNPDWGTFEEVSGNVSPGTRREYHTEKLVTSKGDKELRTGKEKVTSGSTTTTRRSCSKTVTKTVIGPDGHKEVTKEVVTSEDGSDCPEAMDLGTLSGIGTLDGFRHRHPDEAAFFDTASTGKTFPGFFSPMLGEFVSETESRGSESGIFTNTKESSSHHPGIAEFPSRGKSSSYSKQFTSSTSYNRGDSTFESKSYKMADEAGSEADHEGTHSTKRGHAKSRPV
T1 sequence (looked up) 2: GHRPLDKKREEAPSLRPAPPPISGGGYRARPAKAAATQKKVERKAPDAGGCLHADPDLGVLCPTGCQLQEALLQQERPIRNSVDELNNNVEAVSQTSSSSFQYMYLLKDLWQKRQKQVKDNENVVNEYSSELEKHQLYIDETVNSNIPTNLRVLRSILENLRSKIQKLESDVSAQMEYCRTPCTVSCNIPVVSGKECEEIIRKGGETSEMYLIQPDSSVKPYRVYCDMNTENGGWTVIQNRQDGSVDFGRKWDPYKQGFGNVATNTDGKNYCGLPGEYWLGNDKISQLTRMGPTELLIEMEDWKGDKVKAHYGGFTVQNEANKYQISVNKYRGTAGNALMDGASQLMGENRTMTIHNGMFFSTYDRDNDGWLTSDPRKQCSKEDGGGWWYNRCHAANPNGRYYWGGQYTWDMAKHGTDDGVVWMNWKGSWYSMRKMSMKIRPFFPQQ
T1 sequence (looked up) 3: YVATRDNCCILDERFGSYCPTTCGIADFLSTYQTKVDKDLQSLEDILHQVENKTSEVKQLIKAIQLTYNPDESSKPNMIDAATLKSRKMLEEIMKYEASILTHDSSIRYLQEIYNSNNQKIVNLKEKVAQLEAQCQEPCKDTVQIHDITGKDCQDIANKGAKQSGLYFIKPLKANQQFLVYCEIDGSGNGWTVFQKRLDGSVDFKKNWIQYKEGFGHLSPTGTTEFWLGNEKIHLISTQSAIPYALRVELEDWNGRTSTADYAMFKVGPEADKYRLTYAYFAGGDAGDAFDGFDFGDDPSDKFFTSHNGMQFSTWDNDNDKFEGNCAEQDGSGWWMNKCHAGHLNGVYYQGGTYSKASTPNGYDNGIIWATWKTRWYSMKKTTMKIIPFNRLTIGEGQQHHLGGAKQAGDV
The experiment in a line: ELISA on plate-coated human fibrin (fibrinogen clotted in the well with thrombin/CaCl2), antibody titrated, A450. On the procedure:
(§1) The humanized antibodies affinity for fibrinogen, fibrin and P2 peptide were assessed by Enzyme-linked immunosorbent assays (ELISA)s (FIGS. 7-16). ELISAs for fibrinogen binding were performed using plasminogen-depleted human Fibrinogen (EMD/Calbiochem). […] IgG1-depleted Fibrinogen (FGN) in 20 mM HEPES/Saline buffer was added to each well of half of a 96-well Nunc Maxisorp™ ELISA plate. The ELISAs for fibrin binding were prepared by adding 50 mL of 20 mM HEPES/Saline buffer containing 14 mM CaCl₂, and 2 units thrombin to each well of the second half of the Nunc Maxisorp™ ELISA plate. 50 mL of 20 mg fibrinogen in 20 mM HEPES/Saline buffer were then added to a total volume of 100 mL. Plates were placed in a 37° C. incubator for 1 hour to allow fibrinogen to clot into fibrin and subsequently placed overnight into a plate dryer at 37° C. overnight. The ELISAs for P2 peptide were prepared by addition of […] of 30 mM P2 peptide in 20 mM HEPES/Saline buffer to each well of a 96-well Nunc Maxisorp™ ELISA plate. Plates were transferred to the plate dryer and dried overnight at 37° C. All ELISAs were preformed using Nunc MaxiSorp 96-well ELISA plates. Blocking was performed using 100 mL 5% BSA in DPBS are incubated at RT for 1 hour. Plates were washed 5× in DPBS containing 0.05% Tween-20 (EL406 was used for the addition of wash buffer only). […]
On the technique in general: An ELISA detects its analyte on a solid surface through an enzyme-linked reagent.

The target of assay [2] is T2, plasminogen-depleted human Fibrinogen (EMD/Calbiochem) (human, UniProt P02671 20-629; P02675 31-491; P02679 27-437, limits assumed).
T2 construct: Bought protein, IgG-depleted, coated on ELISA plates; also called FGN
T2 sequence (looked up) 1: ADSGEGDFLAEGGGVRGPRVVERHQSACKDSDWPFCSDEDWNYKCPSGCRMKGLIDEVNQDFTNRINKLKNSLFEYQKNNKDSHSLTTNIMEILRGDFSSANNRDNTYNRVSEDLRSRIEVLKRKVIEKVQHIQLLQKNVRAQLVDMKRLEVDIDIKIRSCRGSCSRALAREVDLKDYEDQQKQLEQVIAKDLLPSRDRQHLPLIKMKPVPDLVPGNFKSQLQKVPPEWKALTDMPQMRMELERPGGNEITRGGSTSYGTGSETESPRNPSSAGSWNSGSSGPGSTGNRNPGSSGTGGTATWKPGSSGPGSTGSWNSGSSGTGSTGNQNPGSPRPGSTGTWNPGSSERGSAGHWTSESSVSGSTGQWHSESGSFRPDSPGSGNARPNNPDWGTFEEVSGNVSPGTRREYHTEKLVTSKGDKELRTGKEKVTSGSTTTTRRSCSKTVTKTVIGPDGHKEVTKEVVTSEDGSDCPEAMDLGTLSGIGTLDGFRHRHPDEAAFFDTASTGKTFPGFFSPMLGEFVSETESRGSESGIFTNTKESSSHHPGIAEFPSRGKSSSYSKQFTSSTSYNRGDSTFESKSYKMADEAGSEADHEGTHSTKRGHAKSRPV
T2 sequence (looked up) 2: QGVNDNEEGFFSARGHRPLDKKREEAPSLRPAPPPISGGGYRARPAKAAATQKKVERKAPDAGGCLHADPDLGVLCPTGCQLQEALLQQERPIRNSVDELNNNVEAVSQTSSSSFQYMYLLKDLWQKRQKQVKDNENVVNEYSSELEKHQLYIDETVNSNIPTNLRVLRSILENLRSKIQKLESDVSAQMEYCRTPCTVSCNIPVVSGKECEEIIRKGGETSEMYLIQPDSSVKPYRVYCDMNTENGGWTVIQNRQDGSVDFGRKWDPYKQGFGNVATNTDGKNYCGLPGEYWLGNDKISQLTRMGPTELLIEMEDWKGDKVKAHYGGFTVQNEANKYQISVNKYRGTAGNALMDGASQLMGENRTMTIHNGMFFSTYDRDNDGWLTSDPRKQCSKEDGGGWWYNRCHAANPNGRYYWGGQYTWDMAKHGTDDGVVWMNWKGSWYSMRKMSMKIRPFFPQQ
T2 sequence (looked up) 3: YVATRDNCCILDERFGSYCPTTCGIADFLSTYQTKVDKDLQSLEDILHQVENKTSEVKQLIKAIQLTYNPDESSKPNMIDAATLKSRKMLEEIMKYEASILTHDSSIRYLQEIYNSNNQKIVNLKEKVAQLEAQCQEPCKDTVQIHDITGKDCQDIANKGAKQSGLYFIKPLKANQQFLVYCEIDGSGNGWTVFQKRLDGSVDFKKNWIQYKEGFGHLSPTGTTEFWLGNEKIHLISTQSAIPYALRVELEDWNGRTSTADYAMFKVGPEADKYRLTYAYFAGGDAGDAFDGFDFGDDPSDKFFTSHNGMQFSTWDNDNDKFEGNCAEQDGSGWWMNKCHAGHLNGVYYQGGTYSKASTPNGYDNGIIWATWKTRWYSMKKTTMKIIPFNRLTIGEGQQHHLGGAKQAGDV
The experiment in a line: ELISA on coated human fibrinogen; curve did not reach saturation. Here is the method:
(§2) The humanized antibodies affinity for fibrinogen, fibrin and P2 peptide were assessed by Enzyme-linked immunosorbent assays (ELISA)s (FIGS. 7-16). ELISAs for fibrinogen binding were performed using plasminogen-depleted human Fibrinogen (EMD/Calbiochem). […] IgG1-depleted Fibrinogen (FGN) in 20 mM HEPES/Saline buffer was added to each well of half of a 96-well Nunc Maxisorp™ ELISA plate. The ELISAs for fibrin binding were prepared by adding 50 mL of 20 mM HEPES/Saline buffer containing 14 mM CaCl₂, and 2 units thrombin to each well of the second half of the Nunc Maxisorp™ ELISA plate. 50 mL of 20 mg fibrinogen in 20 mM HEPES/Saline buffer were then added to a total volume of 100 mL. Plates were placed in a 37° C. incubator for 1 hour to allow fibrinogen to clot into fibrin and subsequently placed overnight into a plate dryer at 37° C. overnight. The ELISAs for P2 peptide were prepared by addition of […] of 30 mM P2 peptide in 20 mM HEPES/Saline buffer to each well of a 96-well Nunc Maxisorp™ ELISA plate. Plates were transferred to the plate dryer and dried overnight at 37° C. All ELISAs were preformed using Nunc MaxiSorp 96-well ELISA plates. Blocking was performed using 100 mL 5% BSA in DPBS are incubated at RT for 1 hour. Plates were washed 5× in DPBS containing 0.05% Tween-20 (EL406 was used for the addition of wash buffer only). 50 mL of primary antibodies was diluted in 0.5% BSA in DPBS, and the primary antibodies were added to the plates and incubated for 2 hours at 37° C. Plates were washed 5× in DPBS/Tween. 100 mL secondary antibodies were diluted in 0.5% BSA in DPBS. The secondary antibodies were then added to the plates and incubated for 1 hour at RT. Afterwards, plates were washed 5× in DPBS/Tween. 100 mL of TMB/E substrate solution was added, and the reaction was stopped after 5 minutes with 1N HCl.

The target in assay [3] is T3, P2 peptide comprising SEQ ID NO: 31 (human fibrin γ377-395) (human).
T3 construct: Bought (CPC Scientific 920712); also called human P2 peptide
T3 peptide: YSMKKTTMKIIPFNRLTIG
The assay can be described thus: ELISA on coated P2 peptide. Here is the method: as §2

The target in assay [4] is T1, human Fibrin (human fibrinogen clotted …). The assay can be described thus: ELISA on human fibrin formed on the plate. Here is the method:
as §2

In assay [5] the target is T3, P2 peptide comprising SEQ ID NO: 31 …. The assay can be described thus: ELISA on plate-coated human P2 peptide, antibody titrated, A450. On the procedure:
as §1

The values that follow come from US20240279357A1 (THERINI BIO, published 2024).

For orientation: EC50 (read off the curve) means the concentration needed to bring the measured effect to its halfway point. As a reminder, the EC50 is the concentration at which the effect is half-maximal. Lower therefore signals greater potency.

B1: mouse monoclonal anti-fibrin antibody 5B8 (antibody, V domains shown)
VH: QVQLQQPGAELVRPGTSVKLSCKASGYTFTSYWIHWVKQRPGQGLEWIGLIDPSDSYTNYNQKFRGKATLTVDTSSSTAYMQLSSLTSEDSAVYYCASSDPTGCWGQGTTLTVSP
VL: DIVMTQAAFSNPITLGTSASMSCRSSKSLLHSSGITYLSWYLQKPGQSPQLLIYQMSNLASGVPDRFSSSGSGTDFTLRISRVEAEDVGVYYCAQNLELPLTFGAGTKLELK
notes: also called murine 5B8; Murine 5B8 (from client)
With B1, the “EC50 (read off the curve)” value was around 80 nM in assay [1] and around 30 nM in assay [5]. Moreover, the values for the EC50 in assay [2], in assay [3] and in assay [4] were around 1600 nM, around 29 nM and around 82.6 nM, respectively.
